To fix the notation:
T1: recombinant human CTLA-4 (human, UniProt P16410 36-161, limits assumed)
T1 construct: also called CTLA4 antigen
T1 sequence (looked up): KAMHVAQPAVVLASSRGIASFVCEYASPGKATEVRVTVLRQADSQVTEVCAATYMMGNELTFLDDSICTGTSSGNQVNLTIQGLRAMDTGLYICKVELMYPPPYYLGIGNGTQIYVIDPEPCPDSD

B1: GBD008-S019 (antibody, V domains shown)
VH: QVQLVESGGGLVQPGGSLTLSCAASGFTFSSYTMAWYRQAPGKEREVVAGISRSGGTTNYGDSVKGRFTISRDNAKNTVYLQMNSLKPEDTAVYYCRAVSDYWGQGTQVTVSS
notes: Heavy chain-only antibody (VHH-Fc), no light chain; also called GBD008-5019
B2: GBD008-hS019-4 (antibody, V domains shown)
VH: B1 VH with Q1E, V5L, T19R, A75S, V79L, K87R, P88A, Q108L
notes: Humanized heavy chain-only antibody (VHH-Fc), no light chain
B3: GBD008-S004 (antibody, V domains shown)
VH: EVQLVESGGGLVQAGGSLRLSCLASGRTFSSYDMGWFRQAPGKEREFVAAISWGGVNTYYADSVKGRFTISRDNAKNTVYLQMNSLKPEDTAVYYCARGSAPYSSSRSSAQETYAQWGQGTQVTVSS
notes: Heavy chain-only antibody (VHH-Fc), no light chain
B4: GBD008-hS004-5 (antibody, V domains shown)
VH: B3 VH with A14P, L23A, V79L, K87R, P88A, Q122L
notes: as for B2
B5: GBD008-hS005-3 (antibody, V domains shown)
VH: EVQLVESGGGLVQPGGSLRLSCAASGRTASSNAMAWVRQAPGKEREFVSAISATGGLTAYADSVKGRFTISRDNSKNTLYLQMNSLRAEDTAVYYCAVGRERWYLRHTENEYDYWGQGTLVTVSS
notes: as for B2
B6: GBD008-hS005-3-2 (antibody, V domains shown)
VH: B5 VH with V37F
notes: as for B2

Where a chain is given by its changes, count along the chain named.

For one assay, the target named is T1, recombinant human CTLA-4. The assay is described as follows: Octet (BLI), 1:1 binding model. For orientation: Biolayer interferometry detects binding as a change in optical thickness at a sensor tip.
The term Kd denotes the free concentration of one partner at which half of the binding sites on the other are occupied at equilibrium, for simple one-to-one binding. The term koff denotes the first-order rate constant of dissociation. The term kon denotes a measure of how fast the partners come together. With B1, the dissociation constant (Kd) was 0.165 nM, the koff is 4.35e-05 s⁻¹ and the association rate constant (kon) came out at 263000 M⁻¹ s⁻¹.
Consider B2, for which the Kd amounted to 0.236 nM, the koff stood at 7.13e-05 s⁻¹ and the kon came to 302000 M⁻¹ s⁻¹.
On the same counts, the results for B3 are 28.9 nM, 0.00501 s⁻¹ and 173000 M⁻¹ s⁻¹.
On the same counts, the results for B4 are 27.9 nM, 0.00671 s⁻¹ and 241000 M⁻¹ s⁻¹.
On to B5, for which the Kd is 0.524 nM, the koff turned out to be 9.91e-05 s⁻¹ and the on-rate (kon) was 189000 M⁻¹ s⁻¹.
On the same counts, the results for B6 are 0.53 nM, 0.000114 s⁻¹ and 214000 M⁻¹ s⁻¹.

A further assay addresses T2, mouse CTLA4 (Acro Biosystem, Catlog #CT4-M52H5) (mouse, UniProt P09793 36-161).
T2 construct: Bought protein
In words: ELISA, plate coated with 1 ug/ml mouse CTLA4. (In general: In an ELISA, binding on a coated surface is turned into a signal by an enzyme label.)
For the molecule B1, the binding result is reported as “no binding”.
Same read-out and setting: then B2, with “no binding”.
As for B3, the binding result was “no binding”.
Still for that read-out and setting: then B4, with “no binding”; and B5, with “no binding”; and B6, with “no binding”.

(Values after patent EP4628505A1 (Genor Biopharma Co., Ltd., dated 2025).)
